The target in the assay is T1, CEACAM5 (R&D Systems, 4128-CM-050) (human, UniProt P06731 35-685).
T1 construct: Immobilised on the ELISA plate; also called human CEACAM5
T1 sequence (looked up): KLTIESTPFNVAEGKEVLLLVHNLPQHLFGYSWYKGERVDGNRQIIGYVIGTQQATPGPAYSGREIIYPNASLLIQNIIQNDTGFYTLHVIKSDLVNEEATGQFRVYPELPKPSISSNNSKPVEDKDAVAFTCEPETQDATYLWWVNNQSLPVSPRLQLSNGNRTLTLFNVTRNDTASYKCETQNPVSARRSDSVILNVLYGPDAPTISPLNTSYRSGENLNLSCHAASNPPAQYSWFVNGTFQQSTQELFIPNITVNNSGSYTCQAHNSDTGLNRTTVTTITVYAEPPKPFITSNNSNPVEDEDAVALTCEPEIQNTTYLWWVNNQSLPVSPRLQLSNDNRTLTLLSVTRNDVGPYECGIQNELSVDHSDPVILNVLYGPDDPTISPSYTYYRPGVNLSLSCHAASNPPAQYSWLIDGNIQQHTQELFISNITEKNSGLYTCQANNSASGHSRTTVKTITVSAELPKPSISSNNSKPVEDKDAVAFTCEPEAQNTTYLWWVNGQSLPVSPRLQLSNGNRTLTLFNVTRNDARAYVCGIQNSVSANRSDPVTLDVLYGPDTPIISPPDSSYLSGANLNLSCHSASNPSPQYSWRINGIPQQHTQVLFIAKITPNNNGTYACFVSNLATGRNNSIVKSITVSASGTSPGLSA
The assay is described as follows: ELISA on immobilised CEACAM5, 4-parameter fit, duplicate. The method, then: Each anti-human CEACAM5 antibody Fab fragment conjugate prepared in Example 2 was subjected to ELISA to evaluate the binding activity thereof to CEACAM5. In the present test, a phosphate buffer (Nacalai Tesque Inc., 0.1 mol/L-Phosphate Buffer Solution (pH 7.2)) prepared to 10 mM by diluting 10-fold with distilled water was used as a solvent for an antigen immobilization liquid, and 20×PBS/Tween 20 Buffer (Thermo Fisher Scientific Inc., 28352) diluted 20-fold with distilled water was used as a wash liquid. In addition, for bovine serum albumin (BSA) used in the present test, 30% Bovine Serum Albumin solution (Sigma-Aldrich, Inc., A9576-50ML) was added in an appropriate proportion for use. CEACAM5 (R&D Systems, 4128-CM-050) was diluted with a 10 mM phosphate buffer (pH 7.2) to 0.1 μg/mL, and added to a Nunc MaxiSorp White 384 plate (Nunc, 4603272) at 30 μL per well, and the plate was incubated overnight at 4° C. for immobilization. The CEACAM5 immobilization liquid was removed by reverse centrifugation, and then blocking was carried out by adding a PBS/Tween 20 buffer containing 5.0% BSA. Thereafter, the blocking solution was removed by reverse centrifugation, a solution of each CEACAM5 antibody Fab² fragment conjugate described above or a Fab² fragment having no labeling portion (PB009-01) as a control at about 10000 ng/mL was diluted in 14 steps by 3-fold dilution using a PBS/Tween 20 buffer containing 1.0% BSA, and 30 μL was added per well and incubated at room temperature for 60 minutes. The plate was washed 3 times with a PBS/Tween 20 buffer, and Horseradish Peroxidase (HRP)-labeled goat anti-human IgG (H+L chain) antibody (MBL Life Sciences, 206) diluted 1000-fold using a PBS/Tween 20 buffer containing 5.0% BSA was added at 30 μL per well and incubated at room temperature for 30 minutes. The plate was washed 3 times with a PBS/Tween 20 buffer, and ECL Prime Western Blotting DETECTION Reagent (GE Healthcare, RPN2232) as a substrate was added at 30 μL per well. The substrate was incubated at room temperature for 15 minutes, and then a signal value thereof was measured using an Envision counter (PerkinElmer, Inc.).
The test for each antibody was carried out in duplicate, and an EC₅₀ value was calculated using a 4-parameter logistic curve model.

In patent US20220096653A1, “CONJUGATE COMPRISING LIGAND AND CEACAM5 ANTIBODY FAB FRAGMENT” (ASTELLAS PHARMA INC., priority 2019, published 2022) one finds EC50 data, which are given here for 14 molecules.

The EC50 is the concentration that produces a half-maximal response. Higher therefore signals a need for much substance.

B1: [DFO-C(═O)-CH2O-(1,3-Ph)-C(═O)-Gly-Tyr*-CH2-C(═O)-NH-(CH2)2-Z1(#S)]p-Fab^2 (Fab, V domains shown)
VH: EVQLVESGGGLVQPGGSLRLSCAASGFNIRDTYMHWVRQAPGKGLEWVARIDPANGNSRYVPKFQGRFTISADTSRNTAYLQMNSLRAEDTAVYYCAPFGYYVSDYAMAYWGQGTLVTVSS
VL: DIQLTQSPSSLSASVGDRVTITCRAGESVDIFGVGFLHWYQQKPGKAPKLLIYRASNLESGIPSRFSGSGSRTDFTLTISSLQPEDFATYYCQQTNEDPYTFGQGTKVEIKR
modifications: labeling may sit on this chain; sites not stated; labeling portion (MW 1241) bound via 2-iminothiolane-treated amino groups of the Fab, sites and chain not stated; 1 per Fab by MS; free thiols capped with 2-iodoacetamide
notes: No metal; also called Ex-No 60; Conjugate No. 60
B1 returned an EC50 of 180 pM.

B2: (Y-S1-X)p-Fab^2 with Y Gd/DOTA, S1 -NH-(CH2CH2O)3-CH2-C(═O)-, X -Met-Gly-Lys*-Z2(#N)- (Fab, V domains shown)
VH: B1 VH
VL: B1 VL
modifications: labeling may sit on this chain; sites not stated; labeling portion (MW 1145) on amino groups of the Fab, sites and chain not stated; 1-4 per Fab by MS
notes: also called Ex-No 41; conjugate 41
Regarding B2, the EC50 stood at 210 pM.

B3: (Y-S1-X)p-Fab^2 with Y Gd/DOTA, S1 spacer (m), X -Met-Gly-Lys*-Z2(#N)- (Fab, V domains shown)
VH: B1 VH
VL: B1 VL
modifications: labeling may sit on this chain; sites not stated; labeling portion (MW 1107) on amino groups of the Fab, sites and chain not stated; 1 per Fab by MS
notes: also called Ex-No 42; conjugate 42
As to B3, the response was half-maximal at 210 pM (EC50).

B4: (Y-S1-X)p-Fab^2 with Y Gd/DOT[A], S1 - (bond), X -Gly-Ile-NH-(CH2)2-Z1(#N)- (Fab, V domains shown)
VH: B1 VH
VL: B1 VL
modifications: labeling may sit on this chain; sites not stated; labeling portion (MW 852) on amino groups of the Fab, sites and chain not stated; 1-3 per Fab by MS
notes: also called Ex-No 3; conjugate 3
B4 displayed an EC50 of 130 pM.

B5: (Y-S1-X)p-Fab^2 with Y DFO, S1 -C(═O)-(1,3-Ph)-C(═O)-, X -Gly-Lys*Z2(#S)- (Fab, V domains shown)
VH: B1 VH
VL: B1 VL
modifications: labeling may sit on this chain; sites not stated; labeling portion (MW 1076) on amino groups of the Fab, sites and chain not stated; 1-3 per Fab by MS
notes: No metal; also called Ex-No 64; conjugate 64
In the case of B5, the EC50 is 200 pM.

B6: (Y-S1-X)p-Fab^2 with Y Gd/DOTA, S1 - (bond), X -Gly-Lys*-Z2(#S)- (Fab, V domains shown)
VH: B1 VH
VL: B1 VL
modifications: labeling may sit on this chain; sites not stated; labeling portion (MW 926) on amino groups of the Fab, sites and chain not stated; 1-2 per Fab by MS
notes: also called Ex-No 5; conjugate 5
With B6, the midpoint of the response, the EC50, lay at 140 pM.

B7: (Y-S1-X)p-Fab^2 with Y Gd/4arm-DOTA, S1 -CH2-(1,4-Ph)-NH-C(═S)-, X -Gly-(naph-Ala)-Lys*-Z2(#N)- (Fab, V domains shown)
VH: B1 VH
VL: B1 VL
modifications: labeling may sit on this chain; sites not stated; labeling portion (MW 1187) on amino groups of the Fab, sites and chain not stated; 1-2 per Fab by MS
notes: also called Ex-No 55; conjugate 55
B7 registered an EC50 of 260 pM.

B8: (Y-S1-X)p-Fab^2 with Y Gd/DOTA, S1 - (bond), X -Gly-Lys*-C(═S)-NH-(1,4-Ph)-NH-C(═S)- (Fab, V domains shown)
VH: B1 VH
VL: B1 VL
modifications: labeling may sit on this chain; sites not stated; labeling portion (MW 937) on amino groups of the Fab, sites and chain not stated; 1-2 per Fab by MS
notes: also called Ex-No 1; conjugate 1
B8 gave an EC50 of 160 pM.

B9: (Y-S1-X)p-Fab^2 with Y Gd/DOTA, S1 - (bond), X -Gly-Val-NH-(CH2)2-Z1(#N)- (Fab, V domains shown)
VH: B1 VH
VL: B1 VL
modifications: labeling may sit on this chain; sites not stated; labeling portion (MW 838) on amino groups of the Fab, sites and chain not stated; 1-2 per Fab by MS
notes: also called Ex-No 2; conjugate 2
With B9, the EC50 worked out at 140 pM.

B10: (Y-S1-X)p-Fab^2 with Y Gd/DOTA, S1 -NH-(CH2CH2O)3-CH2-C(═O)-NH-CH2-(1,3-Ph)-C(═O)-, X -Gly-Tyr*-CH-C(═O)-NH-(CH2)2-Z1(#S) (Fab, V domains shown)
VH: B1 VH
VL: B1 VL
modifications: labeling may sit on this chain; sites not stated; labeling portion (MW 1384) on amino groups of the Fab, sites and chain not stated; 1-3 per Fab by MS
notes: also called Ex-No 39; conjugate 39
In turn, B10 registered a concentration for a half-maximal effect (EC50) of 200 pM.

B11: (Y-S1-X)p-Fab^2 with Y Gd/DOTA, S1 -NH-CH2-(1,4-Ph)-C(═O)-, X -Met-Gly-Lys*-Z2(#S)- (Fab, V domains shown)
VH: B1 VH
VL: B1 VL
modifications: labeling may sit on this chain; sites not stated; labeling portion (MW 1190) on amino groups of the Fab, sites and chain not stated; 1-3 per Fab by MS
notes: also called Ex-No 38; conjugate 38
In the case of B11, the EC50 was found to be 180 pM.

B12: (Y-S1-X)p-Fab^2 with Y Gd/DOTA, S1 spacer (i), X -Met -Gly-Lys*-Z2(#N)- (Fab, V domains shown)
VH: B1 VH
VL: B1 VL
modifications: labeling may sit on this chain; sites not stated; labeling portion (MW 1296) on amino groups of the Fab, sites and chain not stated; 1-2 per Fab by MS
notes: also called Ex-No 45; conjugate 45
On to B12, for which a half-maximal response (EC50) required 230 pM.

B13: [Gd/4arm-DOTA-CH2-(1,4-Ph)-NH-C(═S)-NH-CH2-(1,3-Ph)-C(═O)-Met-Gly-Lys*-Z2(#S)]p-Fab^2 (Fab, V domains shown)
VH: B1 VH
VL: B1 VL
modifications: labeling may sit on this chain; sites not stated; labeling portion (MW 1355) bound via 2-iminothiolane-treated amino groups of the Fab, sites and chain not stated; 1-2 per Fab by MS
notes: also called Ex-No 40; Conjugate No. 40
The molecule B13 registered an EC50 of 220 pM.

B14: (Y-S1-X)p-Fab^2 with Y Gd/4arm-DOTA, S1 spacer (n), X -Met-Gly-Lys*-Z2(#N)- (Fab, V domains shown)
VH: B1 VH
VL: B1 VL
modifications: labeling may sit on this chain; sites not stated; labeling portion (MW 1244) on amino groups of the Fab, sites and chain not stated; 1 per Fab by MS
notes: also called Ex-No 58; conjugate 58
The molecule B14 displayed an EC50 of 280 pM.
